Experimental data as given in patent US20050221422.

T1: 11-GalNAc-HP-Cy5 (VPSTPPTPSPS(GalNAc)TPPTPSPS), human IgA1 hinge peptide with GalNAc on the 11th residue, Cy5-labelled
T1 chain: VPSTPPTPSPSTPPTPSPS

T2: 4-GalNAc-HP (VPST(GalNAc)PPTPSPSTPPTPSPS), human IgA1 hinge peptide with GalNAc on the 4th residue
T2 chain: VPSTPPTPSPSTPPTPSPS

B1: C1Gal-T2 (entire ORF expressed in LSC cells, LSC-C1Gal-T2 enzyme source) (protein)
chain: MLSESSSFLKGVMLGSIFCALITMLGHIRIGHGNRMHHHEHHHLQAPNKEDILKISEDERMELSKSFRVYCIILVKPKDVSLWAAVKETWTKHCDKAEFFSSENVKVFESINMDTNDMWLMMRKAYKYAFDKYRDQYNWFFLARPTTFAIIENLKYFLLKKDPSQPFYLGHTIKSGDLEYVGMEGGIVLSVESMKRLNSLLNIPEKCPEQGGMIWKISEDKQLAVCLKYAGVFAENAEDADGKDVFNTKSVGLSIKEAMTYHPNQVVEGCCSDMAVTFNGLTPNQMHVMMYGVYRLRAFGHIFNDALVFLPPNGSDND
B2: FLAG tagged C1Gal-T3 fusion protein (C1Gal-T3 recombinant enzyme from pFLAG-C1Gal-T3, secreted by COS-1 cells) (protein)
chain: HIRHRGQTQDHEHHHLRPPNRNDFLNTSKVILLELSKSIRVFCIIFGESEDESYWAVLKETWTKHCDKAELYDTKNDNLFNIESNDRWVQMRTAYKYVFEKYGDNYNWFFLALPTTFAVIENLKYLLFTRDASQPFYLGHTVIFGDLEYVTVEGGIVLSRELMKRLNRLLDNSETCADQSVIWKLSEDKQLAICLKYAGVHAENAEDYEGRDVFNTKPIAQLIEEALSNNPQQVVEGCCSDMAITFNGLTPQKMEVMMYGLYRLRAFGHYFNDTLVFLPPVGSEND

How the values were obtained:
[1] = target: T1, 11-GalNAc-HP-Cy5 …
[2] = target: various GalNAc α1-peptides
[3] = target: T2, 4-GalNAc-HP …

Row | Protein | HPLC of the galactose transfer reaction product [1] | β1,3-galactosidase treatment of the reaction product, HPLC [1] | galactosyltransferase activity on acceptor substrates [2] | galactose transferring activity [3]
1 | B1 | the reaction product appeared as a new peak at 28.8 minutes | C1Gal-T2 was verified in vitro to be a core 1 synthetase, by which galactose is transferred to the nonreducing terminal of GalNAc α1-peptide through the β1,3 bond | the above experiment was repeated using various GalNAc α1-peptides as acceptor substrates. This resulted in similar reactions to that with pNp-α-GalNAc | 
2 | B2 |  |  |  | galactose transferring activity could be confirmed for 4-GalNAc-HP
